According to patent US20050130151:
pKd: −log10 of the molar value.

Tested on: FMRP RGG box (isolated, C-terminal deletion construct) (Homo sapiens), Q06787-9
Assay: filter

28S rRNA fragment (230 nt)
pKd: < 5.30
